Measured values as given in US20150104448A1 (TRUE NORTH THERAPEUTICS, published 2015).

Legend:
C2 = biological target: T1, C2; test: ELISA, target proteins immobilized on micro-titer plates
T1 construct: member of group m5; also called complement C2
T1 chain: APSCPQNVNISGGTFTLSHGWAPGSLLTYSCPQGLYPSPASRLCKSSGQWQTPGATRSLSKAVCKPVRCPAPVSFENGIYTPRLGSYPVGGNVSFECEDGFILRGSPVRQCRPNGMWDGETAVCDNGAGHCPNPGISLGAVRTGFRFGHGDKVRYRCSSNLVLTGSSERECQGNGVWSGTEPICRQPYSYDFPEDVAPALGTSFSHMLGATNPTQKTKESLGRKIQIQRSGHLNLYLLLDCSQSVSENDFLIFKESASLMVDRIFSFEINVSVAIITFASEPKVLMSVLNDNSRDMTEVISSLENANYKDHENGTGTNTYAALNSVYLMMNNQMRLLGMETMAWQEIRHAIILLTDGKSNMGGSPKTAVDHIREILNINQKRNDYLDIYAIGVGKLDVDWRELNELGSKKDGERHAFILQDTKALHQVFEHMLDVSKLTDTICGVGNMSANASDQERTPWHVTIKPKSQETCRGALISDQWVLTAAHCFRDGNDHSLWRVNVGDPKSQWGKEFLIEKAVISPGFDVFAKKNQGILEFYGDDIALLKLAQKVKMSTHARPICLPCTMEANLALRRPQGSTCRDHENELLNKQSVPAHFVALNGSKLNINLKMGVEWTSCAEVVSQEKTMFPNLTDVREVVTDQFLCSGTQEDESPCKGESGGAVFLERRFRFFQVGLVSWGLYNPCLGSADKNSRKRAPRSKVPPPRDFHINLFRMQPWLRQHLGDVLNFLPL
Description: (§1) To determine whether IPN003 could bind other components of the complement cascade, ELISA assays were performed with target proteins immobilized on micro-titer plates.

[1] = biological target: T2, purified human activated C1s protein, two-chain form (Homo sapiens, UniProt P09871 16-688); test: as above
T2 construct: Also used here for C1s acting in human serum assays; also called human C1s; active C1s
T2 sequence: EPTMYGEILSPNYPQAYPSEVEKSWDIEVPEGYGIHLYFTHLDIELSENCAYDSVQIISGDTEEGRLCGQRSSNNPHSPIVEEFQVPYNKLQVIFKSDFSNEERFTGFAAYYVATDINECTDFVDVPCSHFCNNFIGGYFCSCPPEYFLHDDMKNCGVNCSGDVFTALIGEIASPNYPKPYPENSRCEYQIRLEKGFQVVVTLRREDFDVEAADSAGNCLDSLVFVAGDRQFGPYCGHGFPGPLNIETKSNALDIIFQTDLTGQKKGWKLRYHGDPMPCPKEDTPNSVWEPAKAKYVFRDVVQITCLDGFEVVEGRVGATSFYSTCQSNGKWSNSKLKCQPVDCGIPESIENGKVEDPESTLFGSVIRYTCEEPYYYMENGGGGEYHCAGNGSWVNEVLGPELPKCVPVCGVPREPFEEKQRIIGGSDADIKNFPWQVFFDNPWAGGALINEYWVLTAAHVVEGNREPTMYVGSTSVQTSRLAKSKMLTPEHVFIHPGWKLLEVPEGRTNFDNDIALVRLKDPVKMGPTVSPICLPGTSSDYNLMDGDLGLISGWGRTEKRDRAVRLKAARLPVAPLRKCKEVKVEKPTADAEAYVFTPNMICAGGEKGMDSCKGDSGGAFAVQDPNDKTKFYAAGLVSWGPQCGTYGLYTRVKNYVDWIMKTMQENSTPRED
Description: as §1

C1r = biological target: T3, C1r; test: as above
T3 construct: member of group m5; also called complement C1r
T3 chain: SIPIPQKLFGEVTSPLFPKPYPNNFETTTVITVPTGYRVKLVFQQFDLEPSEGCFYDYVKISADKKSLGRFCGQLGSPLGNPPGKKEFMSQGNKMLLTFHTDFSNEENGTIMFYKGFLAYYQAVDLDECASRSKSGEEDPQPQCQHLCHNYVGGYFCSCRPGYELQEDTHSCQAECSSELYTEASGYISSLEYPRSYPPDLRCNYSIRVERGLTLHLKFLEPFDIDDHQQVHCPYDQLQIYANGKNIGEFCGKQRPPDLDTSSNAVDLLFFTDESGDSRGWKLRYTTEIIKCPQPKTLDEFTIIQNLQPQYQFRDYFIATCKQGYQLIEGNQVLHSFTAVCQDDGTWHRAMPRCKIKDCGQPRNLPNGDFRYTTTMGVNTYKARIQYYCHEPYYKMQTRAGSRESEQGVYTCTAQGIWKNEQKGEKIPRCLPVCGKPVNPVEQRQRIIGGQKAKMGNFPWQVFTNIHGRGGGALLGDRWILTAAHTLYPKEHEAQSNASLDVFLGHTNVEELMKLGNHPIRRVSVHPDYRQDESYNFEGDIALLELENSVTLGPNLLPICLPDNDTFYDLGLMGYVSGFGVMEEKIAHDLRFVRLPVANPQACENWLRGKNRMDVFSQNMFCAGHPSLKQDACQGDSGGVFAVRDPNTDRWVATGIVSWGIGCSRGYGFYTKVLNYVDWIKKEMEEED
Description: as §1

[2] = biological target: T2, purified human activated C1s protein, …; test: kinetic binding measurement, method not stated; Table 4, Active-C1s
Inactive-C1s = biological target: T4, Inactive-C1s (Homo sapiens, UniProt P09871); test: kinetic binding measurement, method not stated; Table 4, Inactive-C1s
T4 construct: proenzyme (pro-C1s); also called pro-C1s
T4 sequence (single chain, looked up): T2 sequence

[3] = biological target: T2, purified human activated C1s protein, …; test: kinetic binding measurement, method not stated; lower end of the printed KD range, native human C1s
[4] = biological target: T2, purified human activated C1s protein, …; test: competition ELISA, plate-coated human C1s; competitor biotin-labeled M81 at 0.5E-9 M; competition with biotin-labeled M81 (0.5E-9 M), plate-coated native human C1s
Description: To determine if IPN003 could compete binding of M81 to human C1s, competition assays were performed, in which biotin-labeled M81 (final concentration 0.5E-9 M) was incubated with increasing concentrations of unlabeled antibodies in wells coated with human C1s.

purified rat C1s = biological target: T5, purified rat C1s (rat, UniProt Q6P6T1 16-688, limits assumed); test: ELISA, purified rat C1s immobilized on micro-titer plates, increasing dilutions of antibody
T5 construct: also called rat complement C1s protein
T5 sequence (looked up): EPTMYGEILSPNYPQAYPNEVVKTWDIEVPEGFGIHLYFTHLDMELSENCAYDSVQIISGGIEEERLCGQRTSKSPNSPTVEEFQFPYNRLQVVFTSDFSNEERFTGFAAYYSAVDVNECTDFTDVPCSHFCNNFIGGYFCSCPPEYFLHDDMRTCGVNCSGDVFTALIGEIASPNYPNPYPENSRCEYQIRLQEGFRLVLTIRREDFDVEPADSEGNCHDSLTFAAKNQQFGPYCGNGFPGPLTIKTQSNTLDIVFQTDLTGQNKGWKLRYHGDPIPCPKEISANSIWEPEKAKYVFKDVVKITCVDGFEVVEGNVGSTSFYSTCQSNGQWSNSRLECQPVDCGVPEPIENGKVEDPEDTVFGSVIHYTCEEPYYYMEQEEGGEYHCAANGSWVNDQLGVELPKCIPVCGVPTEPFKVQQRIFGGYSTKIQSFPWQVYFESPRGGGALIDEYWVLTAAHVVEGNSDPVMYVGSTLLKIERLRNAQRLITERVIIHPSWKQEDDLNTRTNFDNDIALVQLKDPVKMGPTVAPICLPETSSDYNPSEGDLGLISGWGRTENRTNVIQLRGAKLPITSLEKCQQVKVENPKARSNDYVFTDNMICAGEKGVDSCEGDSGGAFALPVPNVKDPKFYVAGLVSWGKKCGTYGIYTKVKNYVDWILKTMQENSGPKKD
Description: ELISA assays were performed with purified rat C1s immobilized on micro-titer plates and increasing dilutions of IPN003 or M81.

[5] = biological target: T2, purified human activated C1s protein, …; test: kinetic binding measurement, method not stated; kinetic measurement, native human C1s

binding result (C2): no binding (tested: about 2e-7 M)
EC50 (read off the curve) [1]: ~0.3 nM
binding result (C1r): no binding (tested: about 2e-7 M)
Kd [2]: 2.04 nM
koff [2]: 0.000658 s⁻¹
kon [2]: 323000 M⁻¹ s⁻¹
Kd (Inactive-C1s): 1.58 nM
koff (Inactive-C1s): 0.000553 s⁻¹
kon (Inactive-C1s): 356000 M⁻¹ s⁻¹
Kd [3]: 1.58 to 2.04 nM
IC50 [4]: 0.33 nM
Kd (purified rat C1s): 0.2 nM
koff [5]: 0.000553 s⁻¹
kon [5]: 356000 M⁻¹ s⁻¹
B1: Anti-C1s monoclonal antibody IPN003 (antibody, V domains shown)
VH: EVMLVESGGALVKPGGSLKLSCAASGFTFSNYAMSWVRQIPEKRLEWVATISSGGSHTYYLDSVKGRFTISRDNARDTLYLQMSSLRSEDTALYYCARLFTGYAMDYWGQGTSVTVSS
VL: QIVLTQSPAIMSASLGERVTMTCTASSSVSSSYLHWYQQKPGSSPKLWIYSTSNLASGVPARFSGSGSGTFYSLTISSMEAEDDATYYCHQYYRLPPITFGAGTKLELK
notes: Mouse monoclonal antibody from an NZBW hybridoma; Biotin-labeled in some assays; also called IPN-M34; M34
